Assay results published in PMC9433327.
Read-outs that look alike come from different tables or passages of the source.

Columns and labels:
[1] = target: LRPL-1 (cDNA lacking the signal peptide) (C. elegans); assay: SPR; LRPL-1 biotinylated and captured on a Streptavidin chip, Biacore X100; DMA-1 ectodomain as analyte at 78 nM to 10 µM; HBS (10 mM HEPES pH 7.2, 150 mM NaCl) with 0.05% Tween-20 and 0.1% BSA; kinetic fit and steady-state fit (Langmuir 1:1)
[2] = target: LRPL-1 (cDNA lacking the signal peptide) (C. elegans); assay: as above; remark: listed apart in the source

“DMA-1 ectodomain (amino acids Leu20 to Leu507) (domain or fragment)” gave a Kd [1] of 3.9 µM, a koff [1] of 0.018 s⁻¹ and a kon [1] of 4600 M⁻¹ s⁻¹. For the same substance, the Kd [2] was 6.9 µM.
